# Reference: paper PMC13385800 (2026)
# B1: EGFP-ANKRD11 full length (FL), wild type [not stated] / endogenous TBLR1 of HEK293T cells and of wild-type Flp-In T-REx 293 cells [human (endogenous in HEK293T and Flp-In T-REx 293)] (parent complex)
# chain 1: MPKGGCPKAPQQEELPLSSDMVEKQTGKKDKDKVSLTKTPKLERGDGGKEVRERASKRKLPFTAGANGEQKDSDTEKQGPERKRIKKEPVTRKAGLLFGMGLSGIRAGYPLSERQQVALLMQMTAEESANSPVDTTPKHPSQSTVCQKGTPNSASKTKDKVNKRNERGETRLHRAAIRGDARRIKELISEGADVNVKDFAGWTALHEACNRGYYDVAKQLLAAGAEVNTKGLDDDTPLHDAANNGHYKVVKLLLRYGGNPQQSNRKGETPLKVANSPTMVNLLLGKGTYTSSEESSTESSEEEDAPSFAPSSSVDGNNTDSEFEKGLKHKAKNPEPQKATAPVKDEYEFDEDDEQDRVPPVDDKHLLKKDYRKETKSNSFISIPKMEVKSYTKNNTIAPKKASHRILSDTSDEEDASVTVGTGEKLRLSAHTILPGSKTREPSNAKQQKEKNKVKKKRKKETKGREVRFGKRSDKFCSSESESESSESGEDDRDSLGSSGCLKGSPLVLKDPSLFSSLSASSTSSHGSSAAQKQNPSHTDQHTKHWRTDNWKTISSPAWSEVSSLSDSTRTRLTSESDYSSEGSSVESLKPVRKRQEHRKRASLSEKKSPFLSSAEGAVPKLDKEGKVVKKHKTKHKHKNKEKGQCSISQELKLKSFTYEYEDSKQKSDKAILLENDLSTENKLKVLKHDRDHFKKEEKLSKMKLEEKEWLFKDEKSLKRIKDTNKDISRSFREEKDRSNKAEKERSLKEKSPKEEKLRLYKEERKKKSKDRPSKLEKKNDLKEDKISKEKEKIFKEDKEKLKKEKVYREDSAFDEYCNKNQFLENEDTKFSLSDDQRDRWFSDLSDSSFDFKGEDSWDSPVTDYRDMKSDSVAKLILETVKEDSKERRRDSRAREKRDYREPFFRKKDRDYLDKNSEKRKEQTEKHKSVPGYLSEKDKKRRESAEAGRDRKDALESCKERRDGRAKPEEAHREELKECGCESGFKDKSDGDFGKGLEPWERHHPAREKEKKDGPDKERKEKTKPERYKEKSSDKDKSEKSILEKCQKDKEFDKCFKEKKDTKEKHKDTHGKDKERKASLDQGKEKKEKAFPGIISEDFSEKKDDKKGKEKSWYIADIFTDESEDDRDSCMGSGFKMGEASDLPRTDGLQEKEEGREAYASDRHRKSSDKQHPERQKDKEPRDRRKDRGAADAGRDKKEKVFEKHKEKKDKESTEKYKDRKDRASVDSTQDKKNKQKLPEKAEKKHAAEDKAKSKHKEKSDKEHSKERKSSRSADAEKSLLEKLEEEALHEYREDSNDKISEVSSDSFTDRGQEPGLTAFLEVSFTEPPGDDKPRESACLPEKLKEKERHRHSSSSSKKSHDRERAKKEKAEKKEKGEDYKEGGSRKDSGQYEKDFLEADAYGVSYNMKADIEDELDKTIELFSTEKKDKNDSEREPSKKIEKELKPYGSSAINILKEKKKREKHREKWRDEKERHRDRHADGLLRHHRDELLRHHRDEQKPATRDKDSPPRVLKDKSRDEGPRLGDAKLKEKFKDGAEKEKGDPVKMSNGNDKVAPSKDPGKKDARPREKLLGDGDLMMTSFERMLSQKDLEIEERHKRHKERMKQMEKLRHRSGDPKLKEKAKPADDGRKKGLDIPAKKPPGLDPPFKDKKLKESTPIPPAAENKLHPASGADSKDWLAGPHMKEVLPASPRPDQSRPTGVPTPTSVLSCPSYEEVMHTPRTPSCSADDYADLVFDCADSQHSTPVPTAPTSACSPSFFDRFSVASSGLSENASQAPARPLSTNLYRSVSVDIRRTPEEEFSVGDKLFRQQSVPAASSYDSPMPPSMEDRAPLPPVPAEKFACLSPGYYSPDYGLPSPKVDALHCPPAAVVTVTPSPEGVFSSLQAKPSPSPRAELLVPSLEGALPPDLDTSEDQQATAAIIPPEPSYLEPLDEGPFSAVITEEPVEWAHPSEQALASSLIGGTSENPVSWPVGSDLLLKSPQRFPESPKRFCPADPLHSAAPGPFSASEAPYPAPPASPAPYALPVAEPGLEDVKDGVDAVPAAISTSEAAPYAPPSGLESFFSNCKSLPEAPLDVAPEPACVAAVAQVEALGPLENSFLDGSRGLSHLGQVEPVPWADAFAGPEDDLDLGPFSLPELPLQTKDAADGEAEPVEESLAPPEEMPPGAPGVINGGDVSTVVAEEPPALPPDQASTRLPAELEPEPSGEPKLDVALEAAVEAETVPEERARGDPDSSVEPAPVPPEQRPLGSGDQGAEAEGPPAASLCAPDGPAPNTVAQAQAADGAGPEDDTEASRAAAPAEGPPGGIQPEAAEPKPTAEAPKAPRVEEIPQRMTRNRAQMLANQSKQGPPPSEKECAPTPAPVTRAKARGSEDDDAQAQHPRKRRFQRSTQQLQQQLNTSTQQTREVIQQTLAAIVDAIKLDAIEPYHSDRANPYFEYLQIRKKIEEKRKILCCITPQAPQCYAEYVTYTGSYLLDGKPLSKLHIPVIAPPPSLAEPLKELFRQQEAVRGKLRLQHSIEREKLIVSCEQEILRVHCRAARTIANQAVPFSACTMLLDSEVYNMPLESQGDENKSVRDRFNARQFISWLQDVDDKYDRMKTCLLMRQQHEAAALNAVQRMEWQLKVQELDPAGHKSLCVNEVPSFYVPMVDVNDDFVLLPA
# chain 2: MSISSDEVNFLVYRYLQESGFSHSAFTFGIESHISQSNINGALVPPAALISIIQKGLQYVEAEVSINEDGTLFDGRPIESLSLIDAVMPDVVQTRQQAYRDKLAQQQAAAAAAAAAAASQQGSAKNGENTANGEENGAHTIANNHTDMMEVDGDVEIPPNKAVVLRGHESEVFICAWNPVSDLLASGSGDSTARIWNLSENSTSGSTQLVLRHCIREGGQDVPSNKDVTSLDWNSEGTLLATGSYDGFARIWTKDGNLASTLGQHKGPIFALKWNKKGNFILSAGVDKTTIIWDAHTGEAKQQFPFHSAPALDVDWQSNNTFASCSTDMCIHVCKLGQDRPIKTFQGHTNEVNAIKWDPTGNLLASCSDDMTLKIWSMKQDNCVHDLQAHNKEIYTIKWSPTGPGTNNPNANLMLASASFDSTVRLWDVDRGICIHTLTKHQEPVYSVAFSPDGRYLASGSFDKCVHIWNTQTGALVHSYRGTGGIFEVCWNAAGDKVGASASDGSVCVLDLRK
# B2: TBLR1-LgBiT wild type [not stated] / ANKRD11-SmBiT [not stated] (parent complex)
# chain 1: B1 chain 2
# chain 2: B1 chain 1
# B3: TBLR1-LgBiT wild type [not stated] / SETD5-SmBiT [not stated] (parent complex)
# chain 1: B1 chain 2
# chain 2: MSIAIPLGVTTSDTSYSDMAAGSDPESVEASPAVNEKSVYSTHNYGTTQRHGCRGLPYATIIPRSDLNGLPSPVEERCGDSPNSEGETVPTWCPCGLSQDGFLLNCDKCRGMSRGKVIRLHRRKQDNISGGDSSATESWDEELSPSTVLYTATQHTPTSITLTVRRTKPKKRKKSPEKGRAAPKTKKIKNSPSEAQNLDENTTEGWENRIRLWTDQYEEAFTNQYSADVQNALEQHLHSSKEFVGKPTILDTINKTELACNNTVIGSQMQLQLGRVTRVQKHRKILRAARDLALDTLIIEYRGKVMLRQQFEVNGHFFKKPYPFVLFYSKFNGVEMCVDARTFGNDARFIRRSCTPNAEVRHMIADGMIHLCIYAVSAITKDAEVTIAFDYEYSNCNYKVDCACHKGNRNCPIQKRNPNATELPLLPPPPSLPTIGAETRRRKARRKELEMEQQNEASEENNDQQSQEVPEKVTVSSDHEEVDNPEEKPEEEKEEVIDDQENLAHSRRTREDRKVEAIMHAFENLEKRKKRRDQPLEQSNSDVEITTTTSETPVGEETKTEAPESEVSNSVSNVTIPSTPQSVGVNTRRSSQAGDIAAEKLVPKPPPAKPSRPRPKSRISRYRTSSAQRLKRQKQANAQQAELSQAALEEGGSNSLVTPTEAGSLDSSGENRPLTGSDPTVVSITGSHVNRAASKYPKTKKYLVTEWLNDKAEKQECPVECPLRITTDPTVLATTLNMLPGLIHSPLICTTPKHYIRFGSPFIPERRRRPLLPDGTFSSCKKRWIKQALEEGMTQTSSVPQETRTQHLYQSNENSSSSSICKDNADLLSPLKKWKSRYLMEQNVTKLLRPLSPVTPPPPNSGSKSPQLATPGSSHPGEEECRNGYSLMFSPVTSLTTASRCNTPLQFELCHRKDLDLAKVGYLDSNTNSCADRPSLLNSGHSDLAPHPSLGPTSETGFPSRSGDGHQTLVRNSDQAFRTEFNLMYAYSPLNAMPRADGLYRGSPLVGDRKPLHLDGGYCSPAEGFSSRYEHGLMKDLSRGSLSPGGERACEGVPSAPQNPPQRKKVSLLEYRKRKQEAKENSAGGGGDSAQSKSKSAGAGQGSSNSVSDTGAHGVQGSSARTPSSPHKKFSPSHSSMSHLEAVSPSDSRGTSSSHCRPQENISSRWMVPTSVERLREGGSIPKVLRSSVRVAQKGEPSPTWESNITEKDSDPADGEGPETLSSALSKGATVYSPSRYSYQLLQCDSPRTESQSLLQQSSSPFRGHPTQSPGYSYRTTALRPGNPPSHGSSESSLSSTSYSSPAHPVSTDSLAPFTGTPGYFSSQPHSGNSTGSNLPRRSCPSSAASPTLQGPSDSPTSDSVSQSSTGTLSSTSFPQNSRSSLPSDLRTISLPSAGQSAVYQASRVSAVSNSQHYPHRGSGGVHQYRLQPLQGSGVKTQTGLS
# Variants of: B1
# Assay: co-immunoprecipitation, mass spectrometry; HEK293T cells; n = 3 independent transfections per mutant; read off a plot
row,Variant,screen value [log2]
1,chain 1 R2523W,~5.7
2,chain 1 S2475P,~8.3
3,chain 1 E2522K,~2.6
4,chain 1 L2605R,~8.2

# Variants of: B2
# Assay: NanoLuc complementation assay; n = 3–5 independent transfections per TBLR1 mutant; read off a plot
row,Variant,ratio to parent
1,chain 1 L83Q,~0.06
2,chain 1 G70D,~0.07
3,chain 1 E63K,~0.37
4,chain 1 G29D,~0.06
5,chain 1 F10L,~0.1

# Variants of: B2
# Assay: co-immunoprecipitation, mass spectrometry; TBLR1-null Flp-In T-REx 293 cells; n = 3 independent transfections; read off a plot
row,Variant,screen value [log2]
1,chain 1 G70D,~1.9

# Variants of: B3
# Assay: NanoLuc complementation assay; n = 6–7 independent transfections per TBLR1 mutant; read off a plot
row,Variant,ratio to parent
1,chain 1 H441R,~0.55
2,chain 1 D328G,~0.6
3,chain 1 S459R,~0.06
4,chain 1 H213Q,~1.2
5,chain 1 Y395C,~0.87
6,chain 1 Y446D,~1.1
7,chain 1 A311P,~0.55
